“Also recorded” adds a separate entry of the source.
B1: LTX (protein)
chain: EGEDLTLEEKAEICSELELQQKYVDIASNIIGDLSSLPIAGKIAGTIAAAAMTATHVASGRLDIEQTLLGCSDLPFDQIKEVLENRFNEIDRKLDSHSAALEEITKLVEKSISVVEKTRKQMNKRFDEVMKSIQDAKVSPIISKINNFARYFDTEKERIRGLKLNDYILKLEEPNGILLHFKESRTPTDDSLQAPLFSIIEEGYAVPKSIDDELAFKVLYALLYGTQTYVSVMFFLLEQYSFLANHYYEKGYLEKYDEYFNSLNNVFLDFKSSLVGTGTSNNEGLLDRVLQVLMTVKNSEFLGLEKNGVDEMLNEKINLFNKIKEEIEGKQKMTLSETPENFAQISFDKDITTPIGDWRDGREVRYAVQYASETLFSKISHWSDPVSVREKACPTLRMPVDQTRRNVLVFRKFDSSKPQLVGEITPYLSNFIDIDRDLYNAASNPDSAVGFKEFTKLNYDGANIRATFDHGRTVFHAAAKSGNDKIMFGLTFLAKSTELNQPDKKGYTPIHVAADSGNAGIVNLLIQRGVSINSKTYHFLQTPLHLAAQRGFVTTFQRLMESPEININERDKDGFTPLHYAIRGGERILEAFLNQISIDVNAKSNTGLTPFHLAIIKNDWPVASTLLGSKKVDINAVDENNITALHYAAILGYLETTKQLINLKEINANVVSSPGLLSALHYAILYKHDDVASFLMRSSNVNVNLKALGGITPLHLAVIQGRKQILSLMFDIGVNIEQKTDEKYTPLHLAAMSKYPELIQILLDQGSNFEAKTNSGATPLHLATFKGKSQAALILLNNEVNWRDTDENGQMPIHGAAMTGLLDVAQAIISIDATVVDIEDKNSDTPLNLAAQNSHIDVIKYFIDQGADINTRNKKGLAPLLAFSKKGNLDMVKYLFDKNANVYIADNDGMNFFYYAVQNGHLNIVKYAMSEKDKFEWSNTDNNRRDECPNEECAISHFAVCDAVQFDRIEIVKYFVGTLGNFAICGPLHQAARYGHLDIVKYLVEEEFLSVDGSKTDTPLCYASENGHFTVVQYLVSNGAKVNHDCGNGMTAIDKAITKNHLQVVQFLAANGVDFRRKNSRGTTPFLTAVAENALHIAEYLIREKRQDININEQNVDKDTALHLAVYYKNLQMIKLLIKYGIDVTIRNAYDKTALDIAIDAKFSNIVEYLKTKSGKFRR

Key:
Format in all cases: cell-based
mTOR = experiment: Phospho-S2448 mTOR ELISA in primary human AML cells; conditions: AML-PB001F cells; for mTOR activation: 24 h
Procedure: Phosphorylation of mTOR was monitored using ELISA assays as recently described (Yasinska I. M. et al (supra); Abooali M. et al (2014) Sci. Rep. 4 6307; Prokhorov A. et al (supra)). Briefly, ELISA plates were coated with mouse anti-mTOR antibodies and blocked with 2% BSA. Cell lysates were then added to the wells and kept at room temperature for at least 2 h (under constant agitation). After extensive washing with TBST buffer (Tris-Buffered Saline and Tween 20), […] mTOR antibody was added and plates were incubated for at least 2 h at room temperature with constant agitation. Plates were then washed with TBST buffer and incubated with 1:1000 Horse Radish Peroxidase-labelled goat anti-rabbit IgG in TBST buffer. After extensive washing with TBST, bound secondary antibodies were then detected by the peroxidase reaction (ortho-phenylenediamine/H2O2).
(§1) Primary human AML mononuclear cells (AML-PB001 F, newly diagnosed/untreated) were purchased from AllCells (Alameda, Calif., USA) and handled in accordance with manufacturer's instructions.
(§2) Experiments were carried out to ascertain whether or not LPHN 1 and LPHN 2 are expressed and function in primary human AML cells. AML-PB001 F primary human mononuclear blasts were used and exposed for 24 h to 1 μg/ml LPS, 500 pM LTX or a combination of these ligands.
(§3) To analyse LPHN1/2 expression levels in AML-PB001F cells, the cells were exposed to mTOR activators (1 μg/ml LPS, 0.1 μg/ml SCF or 2 μg/ml anti-Tim-3 antibody) for 4 h.

[1] = test system: AML-PB001F primary human AML cells; experiment: LPHN1/2 protein levels by Western blot in primary human AML cells; conditions: 4 h, 1 μg/ml LPS, 0.1 μg/ml SCF or 2 μg/ml anti-Tim-3 antibody
Procedure: (§4) Levels of LPHN 1 and LPHN 2, total and phospho-T389 p70 S6K1 were determined by Western blot analysis and compared to β-actin in order to determine equal protein loading, as described by Yasinska I. M. et al (Cell. Mol. Life Sci. (2014) 71 699-710). Li-Cor goat secondary antibodies, conjugated with fluorescent dyes, were used according to the manufacturer's protocol to visualise the proteins of interest using a Li-Cor Odyssey imaging system. Western blot data were analysed quantitatively using Odyssey software and values were normalised against respective β-actin bands.
as §1, §3

[2] = test system: primary healthy human leukocytes; experiment: Latrophilin protein expression by Western blot in primary healthy human leukocytes; conditions: primary leucocytes from healthy donors, 4 or 24 h exposure
Procedure: Primary AML-PB001F cells were exposed for 4 h (A) and healthy human leukocytes for 4 h (B) or 24 h (C) to indicated concentrations of LPS, SCF and anti-Tim-3. Following cell lysis, latrophilin protein levels were analysed by Western blot. Phospho-S2448 mTOR was measured by ELISA. Furthermore, non-treated THP-1 cells, primary human AML cells and primary healthy human leukocytes, as well as those stimulated for 24 h with 1 μg/ml LPS were subjected to quantitative real time polymerase chain reaction qRT-PCR (D). Images show one representative result of at least four experiments, which gave similar results. Data are mean values±SD (n=4). *-p<0.05; **-p<0.01.
as §4, with “bands. […]” for “bands.”

U937 human AML cells = experiment: IL-6 release by ELISA in U937 cells; conditions: 24 h, 500 pM LTX in combination with 1 μg/ml LPS
Procedure: (§5) THP-1 and U937 human leukaemia monocytic macrophages were obtained from the European Collection of Cell Cultures (Salisbury, UK). Cells were cultured in RPMI 1640 media supplemented with 10% foetal calf serum, penicillin (50 IU/ml) and streptomycin sulphate (50 μg/ml).
(§6) Concentrations of IL-6 released into the cell culture media were analysed by ELISA (R&D Systems assay kit) according to the manufacturers protocol.
(§7) Expression of LPHN 1 and LPHN 2 in human AML cell lines—U937 and THP-1—was investigated. Cells were stimulated for 24 h with 1 μg/ml LPS, 500 pM LTX or a combination of these ligands. LPS is a pathogen-associated molecular pattern shared by Gram-negative bacteria and is recognised by the Toll-like receptor 4 (TLR4), which is highly expressed by human myeloid cells. Importantly, LPS was chosen because TLR4 may be targeted by endogenous ligands (like proteins released by dysfunctional mitochondria) to promote expression/release of IL-6 and other important cytokines/growth factors required for leukaemia cell survival.

THP-1 human AML cells = experiment: IL-6 release by ELISA in THP-1 cells; conditions: 24 h, 500 pM LTX in combination with 1 μg/ml LPS
Procedure: as §5, §6, §7

[3] = test system: AML-PB001F primary human AML cells; experiment: IL-6 release by ELISA in primary human AML cells; conditions: 24 h
Procedure: as §6, §1, §2

[4] = 500 pM LTX in combination with 1 μg/ml LPS
[5] = 1 μg/ml LPS alone or 500 pM LTX alone

| Molecule | phosphorylation of S2448 in mTOR (mTOR activation) (mTOR; 4 h, 1 μg/ml LPS, 0.1 μg/ml SCF or 2 μg/ml anti-Tim-3 antibody) | LPHN1/2 expression [1] | LPHN2 expression [1] | latrophilin expression [2] | LPS-induced IL-6 exocytosis (U937 human AML cells) | LPS-induced IL-6 exocytosis (THP-1 human AML cells) | IL-6 exocytosis [3, 4] | IL-6 release [3, 5] | mTOR activation (mTOR; [4]) | mTOR activation (mTOR; [5]) |
| --- | --- | --- | --- | --- | --- | --- | --- | --- | --- | --- |
| SCF: Human Stem Cell Factor protein produced in E. coli; binds Kit (CD117) | significantly increased; also recorded: strongest effect | significantly up-regulated | significantly up-regulated | not inducible |  |  |  |  |  |  |
| B1 |  |  |  |  | highly up-regulated | highly up-regulated | significantly up-regulated | did not influence | significantly up-regulated | did not influence |

Source: US20220042996A1, “COMPOSITIONS AND METHODS RELATED TO LATROPHILINS AS BIOMARKERS FOR HAEMATOPOIETIC CELL CANCER” (priority 2015, published 2022)
